Source: PMC9172071, “Peach fruit PpNAC1 activates PpFAD3-1 transcription to provide ω-3 fatty acids for the synthesis of short-chain flavor volatiles”

Molecular target: GST-PpNAC1 (Prunus persica (peach), UniProt M5WG30 1-363)
Experiment: EMSA; LightShift Chemiluminescent EMSA kit (Thermo Fisher); buffer, salt, pH and temperature not stated (refers to previous study)
Conditions: protein: recombinant; tags: GST (N-terminal, pGEX-4T-1); chain copies: 2; blunt

GST-PpNAC1, sequence (M5WG30 entry or part of it): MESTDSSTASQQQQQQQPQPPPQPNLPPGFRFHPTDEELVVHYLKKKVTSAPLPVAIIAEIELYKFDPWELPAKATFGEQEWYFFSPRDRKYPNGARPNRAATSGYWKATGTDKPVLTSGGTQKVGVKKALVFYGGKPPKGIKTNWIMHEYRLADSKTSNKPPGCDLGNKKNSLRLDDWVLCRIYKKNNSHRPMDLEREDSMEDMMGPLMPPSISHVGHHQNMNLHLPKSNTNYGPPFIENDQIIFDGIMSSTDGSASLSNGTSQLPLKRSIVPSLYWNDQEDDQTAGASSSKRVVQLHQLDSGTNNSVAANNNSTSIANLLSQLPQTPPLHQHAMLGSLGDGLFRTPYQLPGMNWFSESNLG

B1: Mutant-Probe1 (dsDNA)
DNA 1: AACCCCGCAGCAGCGTGCACTTTACCTGGTG
DNA 2: CACCAGGTAAAGTGCACGCTGCTGCGGGGTT
B1: no binding.
